In the test the target is T1, (His)6-Lif1-K301R (S. cerevisiae, UniProt P53150 1-421, K301R).
T1 sequence (looked up): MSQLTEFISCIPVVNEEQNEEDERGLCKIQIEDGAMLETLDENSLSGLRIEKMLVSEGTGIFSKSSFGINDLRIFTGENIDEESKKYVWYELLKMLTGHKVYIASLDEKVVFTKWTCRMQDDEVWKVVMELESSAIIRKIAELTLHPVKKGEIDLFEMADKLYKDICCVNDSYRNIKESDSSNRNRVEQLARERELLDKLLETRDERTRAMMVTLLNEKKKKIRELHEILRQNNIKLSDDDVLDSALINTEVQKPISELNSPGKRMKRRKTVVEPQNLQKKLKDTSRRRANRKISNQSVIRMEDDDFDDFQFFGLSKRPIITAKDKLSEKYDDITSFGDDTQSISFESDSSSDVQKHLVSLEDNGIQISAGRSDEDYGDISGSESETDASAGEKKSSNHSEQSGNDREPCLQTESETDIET
Nature of the test: pull-down.

This note sets out measurements from PMC3664818 (Nucleic Acids Research, 2013).

B1: MBP-Nej1 (natural protein, S. cerevisiae, UniProt Q06148 1-342, looked up)
chain: MDSELKGQQLSDAEWCVKKINGEGNCLLLFLPMSSPTTIVMIVLVSLERLVPYVFKLSQTQLSQQCQSQGFTDSISLNLIKLKLMDILQAPQEINQIGLVDSNLVFSFDVSADITVSINSVPSHVTKDMFYMILQSLCMLLLKLVNLSTQYHYVQRDILNEKQKCLDFLLISLRDLDGGSKVISQWAPENSKNYESLQQCTDDDIIKKLLHKGKFQHQEFLADSLKTLLSLRNKFQDVSRFEESGELNKKERVRFPAVNHFYNDDFELQADPTNEARPNSRGKIKPKTDFKPKSRESSTSSQLRLENFSESEATPEKTKSSSSLVEEYPQKKRKFGKVRIKN
B1: the binding result is “binds”.
